In patent US20220298475A1:

Legend:
[1] = target: SIINFEKL N4 peptide (OVA257-264) presented on MHC-I H-2Kb of dendritic cells (mouse); assay: cell-based or functional assay
[2] = target: LCMV Gp61-80 peptide … presented by MHC-II of dendritic cells (lymphocytic choriomeningitis virus (LCMV)); assay: cell-based or functional assay
Sequence of LCMV Gp61-80 peptide … presented by MHC-II of dendritic cells (lymphocytic choriomeningitis virus (LCMV)) (P07399 61-80): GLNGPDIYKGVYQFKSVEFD

Row | Substance | signal-to-background ratio of biotin labeling on OT-I CD8+ cells (iDC-FT pulsed with 10 nM peptide, flow cytometry) (ratio (signal:background)) [1] | signal-to-background ratio of biotin labeling on OT-I CD8+ cells (iDC-FT pulsed with 100 nM peptide, flow cytometry) (ratio (signal:background)) [1] | signal/background ratio of biotinylated OT-I CD8+ T cells, DC-FT made by Method 1 (background: DC-enzyme primed with LCMV GP33-41) [1] | signal/background ratio of biotinylated OT-I CD8+ T cells, DC-NHS-FT made by Method 2 (background: DC-enzyme primed with LCMV GP33-41) [1] | streptavidin-APC+ OT-I CD8+ cells, DC-FT made by Method 1 [1] [%] | streptavidin-APC+ OT-I CD8+ cells, DC-NHS-FT made by Method 2 [1] [%] | percentage of OT-II CD4+ T cells biotinylated by peptide-pulsed DC-FT [2] [%]
1 | transgenic T cell receptor (TCR) of OT-I CD8+ T cells, specific for the SIINFEKL N4 of ovalbumin presented on MHC I | 10 | 66 | 592 | 9.2 | 77 | 16 | 
2 | TCR of OT-II CD4+ T cells, specific for the OVA323-339 peptide |  |  |  |  |  |  | 1.68
